Key:
Assay in all cases: Mass spectroscopy proteomics, semi-quantitative binding affinity of serum proteins (plaqueproteome, Table 2)
Conditions in all cases: higher number = stronger affinity
[1] = molecular target: T1, alpha-synuclein plaque particles (Homo sapiens, UniProt P37840)
T1 construct: 140 amino acids polypeptide
In short: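 AD-subject plasma or serum (800 μL of 50%) mixed with 30 μg preformed alpha-synuclein aggregates for 1 h at 37 °C; Thioflavin S-positive particles isolated by flow sorting. After reduction, acrylamide alkylation and overnight tryptic digestion, serum proteins identified by MS/MS with Sequest and Scaffold.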

[2] = test system: Low density cholesterol (Chl small) plaque particles; parameters: species or system human
In short: (§1)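 Serum or plasma from atherosclerotic subjects, as 50% serum, was incubated with 30 μg cholesterol aggregates for 1 h at 37 °C. High- and low-density particles were then flow-sorted, trypsin-digested and analysed by MS/MS. Proteins were identified by Sequest search against human UniProt and validated with Protein Prophet.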

[3] = test system: High Density cholesterol (Chl Large) plaque particles; parameters: species or system human
In short: as §1

[4] = molecular target: T2, Abeta-42 plaque particles (Homo sapiens, UniProt P05067)
T2 construct: Abeta 1-42
In short: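 AD patient serum or plasma (50% in PBS) was incubated with Abeta-42 aggregates (30 μg) for 1 h at 37 °C, then stained with Thioflavin S for 30 min. Labeled particles were FACS-sorted, trypsin/Lys-C digested overnight and analyzed by MS/MS. Sequest searched human UniProt; Scaffold/Protein Prophet validated the identifications.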

Tau plaque particles = test system: Tau plaque particles; parameters: species or system human
In short: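 Serum or plasma proteins captured on Thioflavin S-labelled Tau plaque particles (Tau-74, Tau-275 oligomers preformed in PBS at 37° C for 2 h; 1 h co-incubation at 37° C) were isolated by FACS sorting, then tryptically digested and identified by MS/MS (Sequest, human UniProt, strict trypsin).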

| Molecule | Semi-quantitative analysis of proteins binding to different plaque particles: Synuclein [1] | Semi-quantitative analysis of proteins binding to different plaque particles: Chl small [2] | Semi-quantitative analysis of proteins binding to different plaque particles: Chl Large [3] | Semi-quantitative analysis of proteins binding to different plaque particles: Abeta-42 [4] | Semi-quantitative analysis of proteins binding to different plaque particles: Tau (Tau plaque particles) |
| --- | --- | --- | --- | --- | --- |
| Peroxiredoxin-1 (protein) SSGNAKIGHPAPNFKATAVMPDGQFKDISLSDYKGKYVVFFFYPLDFTFVCPTEIIAFSDRAEEFKKLNCQVIGASVDSHFCHLAWVNTPKKQGGLGPMNIPLVSDPKRTIAQDYGVLKADEGISFRGLFIIDDKGILRQITVNDLPVGRSVDETLRLVQAFQFTDKHGEVCPAGWKPGSDTIKPDVQKSKEYFSKQK | 0 | 0 | 0 | 5 | 0 |
| Dermcidin (protein) YDPEAASAPGSGNPCHEASAAQKENAGEDPGLARQAPKPRKQRSSLLEKGLDGAKKAVGGLGKLGKDAVEDLESVGKGAVHDVKDVLDSVL | 0 | 0 | 0 | 2 | 0 |
| Serpin B12 (protein) MDSLVTANTKFCFDLFQEIGKDDRHKNIFFSPLSLSAALGMVRLGARSDSAHQIDEVLHFNEFSQNESKEPDPCLKSNKQKAGSLNNESGLVSCYFGQLLSKLDRIKTDYTLSIANRLYGEQEFPICQEYLDGVIQFYHTTIESVDFQKNPEKSRQEINFWVECQSQGKIKELFSKDAINAETVLVLVNAVYFKAKWETYFDHENTVDAPFCLNANENKSVKMMTQKGLYRIGFIEEVKAQILEMRYTKGKLSMFVLLPSHSKDNLKGLEELERKITYEKMVAWSSSENMSEESVVLSFPRFTLEDSYDLNSILQDMGITDIFDETRADLTGISPSPNLYLSKIIHKTFVEVDENGTQAAAATGAVVSERSLRSWVEFNANHPFLFFIRHNKTQTILFYGRVCSP | 0 | 0 | 0 | 2 | 0 |
| Isoform 2 of RNA-binding protein 39 (protein) ADDIDIEAMLEAPYKKDENKLSSANGHEERSKKRKKSKSRSRSHERKRSKSKERKRSRDRERKKSKSRERKRSRSKERRRSRSRSRDRRFRGRYRSPYSGPKFNSAIRGKIGLPHSIKLSRRRSRSKSPFRKDKSPVREPIDNLTPEERDARTVFCMQLAARIRPRDLEEFFSTVGKVRDVRMISDRNSRRSKGIAYVEFVDVSSVPLAIGLTGQRVLGVPIIVQASQAEKNRAAAMANNLQKGSAGPMRLYVGSLHFNITEDMLRGIFEPFGRIESIQLMMDSETGRSKGYGFITFSDSECAKKALEQLNGFELAGRPMKVGHVTERTDASSASSFLDSDELERTGIDLGTTGRLQLMARLAEGTGLQIPPAAQQALQMSGSLAFGAVADLQTRLSQQTEASALAAAASVQPLATQCFQLSNMFNPQTEEEVGWDTEIKDDVIEECNKHGGVIHIYVDKNSAQGNVYVKCPSIAAAIAAVNALHGRWFAGKMITAAYVPLPTYHNLFPDSMTATQLLVPSRR | 0 | 0 | 0 | 2 | 0 |
| Carboxypeptidase N catalytic chain (protein) VTFRHHRYDDLVRTLYKVQNECPGITRVYSIGRSVEGRHLYVLEFSDHPGIHEPLEPEVKYVGNMHGNEALGRELMLQLSEFLCEEFRNRNQRIVQLIQDTRIHILPSMNPDGYEVAAAQGPNKPGYLVGRNNANGVDLNRNFPDLNTYIYYNEKYGGPNHHLPLPDNWKSQVEPETRAVIRWMHSFNFVLSANLHGGAVVANYPYDKSFEHRVRGVRRTASTPTPDDKLFQKLAKVYSYAHGWMFQGWNCGDYFPDGITNGASWYSLSKGMQDFNYLHTNCFEITLELSCDKFPPEEELQREWLGNREALIQFLEQVHQGIKGMVLDENYNNLANAVISVSGINHDVTSGDHGDYFRLLLPGIYTVSATAPGYDPETVTVTVGPAEPTLVNFHLKRSIPQVSPVRRAPSRRHGVRAKVQPQARKKEMEMRQLQRGPA | 0 | 0 | 0 | 0 | 1 |
| Isoform 2 of Nucleophosmin (protein) MEDSMDMDMSPLRPQNYLFGCELKADKDYHFKVDNDENEHQLSLRTVSLGAGAKDELHIVEAEAMNYEGSPIKVTLATLKMSVQPTVSLGGFEITPPVVLRLKCGSGPVHISGQHLVAVEEDAESEDEEEEDVKLLSISGKRSAPGGGSKVPQKKVKLAADEDDDDDDEEDDDEDDDDDDFDDEEAEEKAPVKKGQESFKKQEKTPKTPKGPSSVEDIKAKMQASIEKGGSLPKVEAKFINYVKNCFRMTDQEAIQDLWQWRKSL | 0 | 0 | 0 | 4 | 0 |
| Selenoprotein P (protein) ESQDQSSLCKQPPAWSIRDQDPMLNSNGSVTVVALLQASUYLCILQASKLEDLRVKLKKEGYSNISYIVVNHQGISSRLKYTHLKNKVSEHIPVYQQEENQTDVWTLLNGSKDDFLIYDRCGRLVYHLGLPFSFLTFPYVEEAIKIAYCEKKCGNCSLTTLKDEDFCKRVSLATVDKTVETPSPHYHHEHHHNHGHQHLGSSELSENQQPGAPNAPTHPAPPGLHHHHKHKGQHRQGHPENRDMPASEDLQDLQKKLCRKRCINQLLCKLPTDSELAPRSUCCHCRHLIFEKTGSAITUQCKENLPSLCSUQGLRAEENITESCQURLPPAAUQISQQLIPTEASASURUKNQAKKUEUPSN | 1 | 0 | 0 | 0 | 0 |

From patent publication US9618524B2, “Method, composition, isolation and identification of a plaque particle and related biomarker” (Plaxgen Inc., priority 2012, dated 2017)
